From US20190315845A1 (ANNEXON, published 2019)

Tests used:
[1] = biological target: T1, human C1q (human, UniProt P02745 23-245; P02746 28-253; P02747 29-245); experiment: SPR Biacore T200, heterogeneous ligand model, KD1; hC1q immobilised (ligand), Fab analyte
T1 construct: Purified human C1q protein (plate-coated in ELISA, ligand or analyte in SPR, in human serum in CH50); also called hC1q; complement factor C1q
Description: (§1) Due to concerns about stability, two chips were prepared; one with hC1q and mC1q (Chip All) as ligands and one with IgG and Fab (Chip A13) as ligands Immobilization for m/h C1q was carried out at a protein concentration of 5 μg/ml in 10 mM acetate buffer pH 5.5, whereas immobilization for IgG and Fab was carried out at a protein concentration of 0.5-2 μg/ml in 10 mM acetate buffer pH 5.0, both on a CMS Series S sensor chip (Biacore).
(§2) The kinetic parameters for both the IgG and Fab interactions with hC1q were in the low picomolar range (Table 6 for 1-to-1 model and Table 7 for the heterogeneous model). In order to avoid avidity, hC1q was initially used as the ligand, however this limited the analysis to single cycle kinetics and the use of more complex models, for example, heterogeneous ligand binding models (Equation 3), that may represent the different forms of hC1q structure that were associated with chemical coupling of a multi-subunit protein to a surface. When hC1q was used as the analyte both IgG and Fab were immobilized at the lowest concentrations possible to avoid avidity. The data was analyzed using a 1-to-1 model and a more complex bivalent analyte model (Equation 4). […] It should be noted that the dissociation rate was too slow to measure accurately with this technique. […]

[2] = biological target: T1, human C1q; experiment: SPR Biacore T200, heterogeneous ligand model, ka1; hC1q immobilised (ligand), Fab analyte
Description: as §1, §2

[3] = biological target: T2, mouse C1q (mouse, UniProt P98086 23-245; P14106 26-253; Q02105 30-246); experiment: SPR Biacore T200, 1:1 model; Fab immobilised (ligand), mC1q analyte; mean of 2 independent analyses
T2 construct: Purified mouse C1q protein; also called mC1q
Description: as §1
(§3) The association phase was monitored for 500 seconds to allow some of the higher concentrations of analyte to reach steady state. In order to observe a sufficient signal decrease (>10%) during the dissociation phase of the kinetic cycle, dissociation was measured for up to 10,800 seconds to allow sufficient dissociation to occur for accurate assessment of the kinetics. The signal from the reference channel Fₑ1 was subtracted from that of Fₑ2, Fₑ3, and Fₑ4.

[4] = biological target: T1, human C1q; experiment: SPR Biacore T200, heterogeneous ligand model, kd2; hC1q immobilised (ligand), Fab analyte
Description: as §1, §2

[5] = biological target: T1, human C1q; experiment: SPR Biacore T200, 1:1 model, single cycle kinetics; hC1q immobilised (ligand), Fab analyte
[6] = biological target: T1, human C1q; experiment: SPR Biacore T200, heterogeneous ligand model, kd1; hC1q immobilised (ligand), Fab analyte
[7] = biological target: T2, mouse C1q; experiment: SPR Biacore T200, 1:1 model; mC1q immobilised (ligand), Fab analyte; analysis 1
[8] = biological target: T1, human C1q; experiment: SPR Biacore T200, heterogeneous ligand model, KD2; hC1q immobilised (ligand), Fab analyte
Description: as §1, §2

[9] = biological target: T2, mouse C1q; experiment: SPR Biacore T200, 1:1 model; Fab immobilised (ligand), mC1q analyte; analysis 2
[10] = biological target: T2, mouse C1q; experiment: SPR Biacore T200, 1:1 model; mC1q immobilised (ligand), Fab analyte; analysis 2
Description: as §1
(§4) Both C1q complexes were immobilized based on concerns over avidity (i.e., two immobilized antibodies binding C1q), and the very high levels of NSB observed using mC1q and to a lesser extent hC1q to the CM5 surface (charge mediated estimated C1q: pI 8-9). Single cycle kinetics (SCK) were used initially to derive estimated kinetic constants due to uncertainty over the stability of the C1q complex and the regeneration conditions. Full kinetic analysis was performed after SCK. The ligand stability control injections performed during the kinetic run indicated either the regeneration conditions used were inactivating the ligand, or the ligand itself was unstable at 25° C. during the 48 hours required for kinetic analysis.
as §3

[11] = biological target: T1, human C1q; experiment: SPR Biacore T200, heterogeneous ligand model, ka2; hC1q immobilised (ligand), Fab analyte
Description: as §1, §2

[12] = biological target: T1, human C1q; experiment: SPR Biacore T200, 1:1 model; Fab immobilised (ligand), hC1q analyte
[13] = biological target: T2, mouse C1q; experiment: SPR Biacore T200, 1:1 model; Fab immobilised (ligand), mC1q analyte; analysis 1
[14] = biological target: T2, mouse C1q; experiment: SPR Biacore T200, 1:1 model; mC1q immobilised (ligand), Fab analyte; mean of 2 independent analyses
Description: as §1, §4, §3

T1 sequence (P02745 23-245 limits assumed, chain 1 of 3): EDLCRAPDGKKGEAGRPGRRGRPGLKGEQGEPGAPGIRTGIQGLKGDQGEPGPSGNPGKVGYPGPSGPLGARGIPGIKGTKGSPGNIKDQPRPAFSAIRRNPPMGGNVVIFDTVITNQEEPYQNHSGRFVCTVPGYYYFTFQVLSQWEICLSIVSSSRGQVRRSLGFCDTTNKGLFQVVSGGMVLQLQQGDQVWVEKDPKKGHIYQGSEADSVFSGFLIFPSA
T1 sequence (P02746 28-253 limits assumed, chain 2 of 3): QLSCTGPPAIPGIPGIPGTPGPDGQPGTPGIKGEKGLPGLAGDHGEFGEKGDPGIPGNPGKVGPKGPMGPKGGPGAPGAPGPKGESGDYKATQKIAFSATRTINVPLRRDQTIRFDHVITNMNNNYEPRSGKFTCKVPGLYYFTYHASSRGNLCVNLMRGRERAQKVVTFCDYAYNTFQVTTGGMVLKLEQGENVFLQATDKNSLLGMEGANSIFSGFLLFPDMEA
T1 sequence (P02747 29-245 limits assumed, chain 3 of 3): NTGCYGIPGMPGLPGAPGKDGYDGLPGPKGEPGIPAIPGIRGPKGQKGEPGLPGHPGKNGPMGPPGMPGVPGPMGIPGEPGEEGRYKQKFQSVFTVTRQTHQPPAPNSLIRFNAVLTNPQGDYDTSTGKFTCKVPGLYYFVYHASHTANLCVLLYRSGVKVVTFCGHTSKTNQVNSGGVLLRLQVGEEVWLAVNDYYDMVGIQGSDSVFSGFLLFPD
T2 sequence (P98086 23-245 limits assumed, chain 1 of 3): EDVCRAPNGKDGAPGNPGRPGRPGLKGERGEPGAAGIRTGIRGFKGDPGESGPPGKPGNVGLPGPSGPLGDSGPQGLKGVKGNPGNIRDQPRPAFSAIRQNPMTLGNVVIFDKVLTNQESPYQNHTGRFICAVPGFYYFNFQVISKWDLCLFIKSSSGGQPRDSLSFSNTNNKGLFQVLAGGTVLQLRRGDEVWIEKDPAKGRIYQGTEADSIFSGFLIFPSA
T2 sequence (P14106 26-253 limits assumed, chain 2 of 3): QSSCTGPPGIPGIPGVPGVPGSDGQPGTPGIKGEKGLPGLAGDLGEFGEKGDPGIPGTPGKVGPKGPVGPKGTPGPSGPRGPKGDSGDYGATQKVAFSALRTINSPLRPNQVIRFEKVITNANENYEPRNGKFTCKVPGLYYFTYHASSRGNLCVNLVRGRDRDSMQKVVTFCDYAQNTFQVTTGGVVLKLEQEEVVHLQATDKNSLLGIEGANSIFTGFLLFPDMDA
T2 sequence (Q02105 30-246 limits assumed, chain 3 of 3): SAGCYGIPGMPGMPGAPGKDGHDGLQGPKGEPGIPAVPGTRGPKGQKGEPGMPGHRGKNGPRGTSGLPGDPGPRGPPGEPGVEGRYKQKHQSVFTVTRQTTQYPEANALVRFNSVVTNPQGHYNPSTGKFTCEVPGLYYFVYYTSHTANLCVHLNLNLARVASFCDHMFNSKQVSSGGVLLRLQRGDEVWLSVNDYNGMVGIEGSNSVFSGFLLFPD

Kd [1]: 175 nM
kon [2]: 130000 M⁻¹ s⁻¹
Kd [3]: 123 nM
koff [3]: 0.032 s⁻¹
kon [3]: 310000 M⁻¹ s⁻¹
koff [4]: 6.3e-08 s⁻¹
Kd [5]: < 0.192 nM
koff [5]: < 1e-05 s⁻¹
kon [5]: 52000 M⁻¹ s⁻¹
koff [6]: 2.3e-05 s⁻¹
Kd [7]: 748 nM
koff [7]: 0.0046 s⁻¹
kon [7]: 6230 M⁻¹ s⁻¹
Kd [8]: 3.4 nM
Kd [9]: 121 nM
Kd [10]: 607 nM
koff [10]: 0.0041 s⁻¹
kon [10]: 6900 M⁻¹ s⁻¹
kon [11]: 18000 M⁻¹ s⁻¹
Kd [12]: 0.0086 nM
koff [12]: 9.1e-06 s⁻¹
kon [12]: 1.1e+06 M⁻¹ s⁻¹
Kd [13]: 126 nM
koff [13]: 0.056 s⁻¹
kon [13]: 450000 M⁻¹ s⁻¹
Kd [14]: 677 nM
koff [14]: 0.0043 s⁻¹
kon [14]: 6500 M⁻¹ s⁻¹
B1: Fab fragment of humanized anti-C1q antibody VH3/Vκ3 (Fab)
heavy: QVQLVQSGAELKKPGASVKVSCKSSGYHFTSYWMHWVKQAPGQGLEWIGVIHPNSGSINYNEKFESRVTITVDKSTSTAYMELSSLRSEDTAVYYCAGERDSTEVLPMDYWGQGTTVTVSS
light: DVQITQSPSSLSASLGERATINCRASKSINKYLAWYQQKPGKAPKLLIYSGSTLQSGIPARFSGSGSGTDFTLTISSLEPEDFAMYYCQQHNEYPLTFGQGTKLEIK
notes: also called Fab VH3/Vκ3; Fab-VH3/Vκ3; not shown: CH1 part of the human IgG4 (S241P L248E) constant region left after digestion of the IgG with a Fab Micro Preparation Ki; human kappa light chain constant region
